From patent US20240400703A1 (Genmab, published 2024)
Where “and” joins values, the source holds several entries; their conditions need not be identical. Equal values may be shown once.

Legend:
[1] = molecular target: T1, human OX40 expressed on cells (human, UniProt P43489 29-277); assay: flow cytometry, loss of sOX40L (2 µg/mL) binding to activated human CD4+ T cells; competitor sOX40L
T1 construct: also called CD134; TNFRSF4
T1 sequence: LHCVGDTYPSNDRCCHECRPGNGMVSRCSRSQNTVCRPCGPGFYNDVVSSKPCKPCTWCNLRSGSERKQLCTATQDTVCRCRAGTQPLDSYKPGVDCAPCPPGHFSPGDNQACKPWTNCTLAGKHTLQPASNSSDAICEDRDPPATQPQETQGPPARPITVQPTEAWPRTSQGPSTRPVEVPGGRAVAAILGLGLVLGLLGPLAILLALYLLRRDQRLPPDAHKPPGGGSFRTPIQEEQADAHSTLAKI
Method: (§1) Stimulated PBMCs were pelleted, resuspended in FACS buffer 2 (DPBS with 2% heat-inactivated FBS [Sigma-Aldrich, cat. no. F7524] and 2 mM EDTA [Sigma-Aldrich, cat. no. 03690]), and seeded (100,000 cells/well) in round-bottom 96-well plates (VWR International GmbH, cat. no. 734-197). […] Next, cells were washed twice in FACS buffer, and incubated with 30 μL of the antibody panel described in Table 11 diluted in FACS buffer 2 containing 1:1,500 Fixable Viability Stain eFluor 780 at 4° C. for 20 min, protected from light. The cells were subsequently washed twice with 120-150 μL FACS buffer 2 and measured on a BD FACSCelesta flow cytometer using a BD High Throughput sampler and subsequent analysis was done using FlowJo software.

[2] = molecular target: T1, human OX40 expressed on cells; assay: flow cytometry, activated human CD8+ T cells, mean of 3 donors; CD8+ T cells
Method: (§2) Healthy human donor PBMCs were purified essentially as described in Example 7. The cell concentration was adjusted to 2×10⁶ cells per mL (final concentration) in assay medium and plated in 6-well plates (Greiner, cat. no. 657160). PBMCs were stimulated with 0.3 μg/mL anti-CD3 ([…] Technologies, cat. no. 60011) and 0.5 μg/mL anti-CD28 antibodies (BioLegend, cat. no. 302934) and cultured for two days at 37° C., 5% CO₂. Next, the PBMCs were harvested, counted and brought to a concentration of 2×10⁶ cells per mL in FACS buffer 1 (DPBS with 2% heat-inactivated FBS and 2 mM ethylenediaminetetraacetic acid [EDTA]). […] After 60 min at RT, the cells were prepared for flow cytometric analyses. To this end, the cells were washed twice with 150 μL FACS buffer 1 and 30 μL/well cell-surface antibody mix (Table 9) in FACS buffer 1 containing antibody against human Fcγ antibody (Table 9) and fixable viability dye eFluor780 (1:1,500) was added. The staining procedures were carried out at 4° C. for 15-20 min protected from light. Stained cells were washed twice with 120-150 μL FACS buffer 1 (5 min, 460×g, RT) and resuspended in 60-100 μL FACS buffer 1 for direct flow cytometric analyses. Flow cytometric data were acquired on a FACSymphony A3 and analyzed with FlowJo software.

[3] = molecular target: T1, human OX40 expressed on cells; assay: flow cytometry, activated human CD8+ T cells, with 2 µg/mL sOX40L, n=3
Method: as §1

[4] = molecular target: T1, human OX40 expressed on cells; assay: flow cytometry, activated human CD8+ T cells, donor 1
Method: as §2

[5] = molecular target: T1, human OX40 expressed on cells; assay: flow cytometry, activated human CD8+ T cells, mean of 3 donors
Method: as §2

[6] = molecular target: T1, human OX40 expressed on cells; assay: flow cytometry, human T cells activated 72 h with anti-CD3/CD28 beads
[7] = molecular target: T1, human OX40 expressed on cells; assay: flow cytometry, activated human CD4+ T cells, mean of 3 donors; CD4+ T cells
[8] = molecular target: T1, human OX40 expressed on cells; assay: flow cytometry, activated human CD4+ T cells, with 2 µg/mL sOX40L, n=3
Method: as §1

[9] = molecular target: T2, recombinant cynomolgus monkey OX40 (Acro Biosystems, cat. no. OX0-C5220) (cynomolgus monkey (Macaca fascicularis), UniProt P43489 29-214 (human entry)); assay: BLI, Ab on AHC sensor, OX40 analyte; * binding observed, less reliable fit
T2 construct: bought protein; also called Cyno OX40
T2 chain: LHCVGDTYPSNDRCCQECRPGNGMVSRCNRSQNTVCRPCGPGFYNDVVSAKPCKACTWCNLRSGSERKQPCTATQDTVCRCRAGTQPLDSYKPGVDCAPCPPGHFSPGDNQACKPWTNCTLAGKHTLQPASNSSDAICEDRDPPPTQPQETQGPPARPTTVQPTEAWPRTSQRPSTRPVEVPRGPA
Method: Experiments were carried out while shaking at 1,000 RPM at 30° C. […] Next, AHC sensors were loaded with antibody (1 μg/mL in Sample Diluent) for 600 s. After a baseline measurement in sample diluent (100 s), the association (200 s) and dissociation (1,000 s) of human OX40 (Acro Biosystems, cat. no. OX0-H5224), and cynomolgus monkey OX40 (Acro Biosystems, cat. no. OX0-C5220) was determined using a concentration range of 0.78 to 800 nM with 2-fold dilution steps.
The theoretical molecular masses of the antigens based on the amino acid sequences were used for calculations. For each antibody, a reference sensor was used which was incubated with Sample Diluent instead of antigen. AHC sensors were regenerated by exposure to 10 mM glycine buffer pH 1.7 for 5 s, followed by neutralization in Sample Diluent for 5 s; both steps were repeated twice. Subsequently sensors were loaded again with antibody for the next cycle of kinetic measurements.
Data were acquired using Data Acquisition Software v12.0 (Sartorius) and analyzed with Data Analysis Software v12.0 (Sartorius). Data traces were corrected per antibody by subtraction of the reference sensor. The Y-axis was aligned to the last 10 s of the baseline and Interstep Correction alignment to dissociation as well as Savitzky-Golay filtering were applied. Data traces with a response <0.05 nm were excluded from analysis. […] The data was fitted with the 1:1 model using a window of interest for the association of 200 s and dissociation times set at 50 s, 200 s and 1,000 s. The dissociation time was chosen based upon R² value, visual inspection of the curve and at least 5% signal decay during the dissociation step.

Row | Binder | IC50 [1] [µg/mL] | EC50 [2] [nM] | EC50 [3] | EC50 [4] [µg/mL] | EC50 [5] [µg/mL] | EC50 (read off the curve) [6] [µg/mL] | EC50 [7] [nM] | EC50 [8] | Kd [9] [nM] | koff [9] [s⁻¹] | kon [9] [M⁻¹ s⁻¹]
1 | IgG1-CD134-003-HC6LC2-P329R-E345R (antibody, humanized; human IgG1 with P329R and E345R (Eu numbering), kappa; also called IgG1-CD134-003-HC6LC2-RR) heavy: not shown light: AAVLTQSPSSLSASVGDRVTITCQSSQIVVNNNFLSWYQQKPGKAPKLLIYDASNLASGVPDRFSGSGSGTDFTFTISSLQPEDIATYYCLGGYDDDAENAFGGGTKVEIKRTVAAPSVFIFPPSDEQLKSGTASVVCLLNNFYPREAKVQWKVDNALQSGNSQESVTEQDSKDSTYSLSSTLTLSKADYEKHKVYACEVTHQGLSSPVTKSFNRGEC | 0.086 | 0.159 | 0.038 µg/mL and 0.254 nM | 0.0329 | 0.0236 | ~0.02 | 0.14 | 0.054 µg/mL and 0.359 nM |  |  | 
2 | IgG1-CD134-012 (antibody, rabbit-human chimeric IgG1) heavy: not shown light: DIVMTQTPASVEAAVGGTVTIKCQASENIYSSLAWYQQKPGQPPKLLIYRTSTLASGVPSRFKGSGSGTQFTLTISDLESDDAATYYCQSYYHNSGGGYDYGFGGGTEVVAKRTVAAPSVFIFPPSDEQLKSGTASVVCLLNNFYPREAKVQWKVDNALQSGNSQESVTEQDSKDSTYSLSSTLTLSKADYEKHKVYACEVTHQGLSSPVTKSFNRGEC |  |  |  |  |  |  |  |  | 180 | 0.018 | 98000
